Laboratory results published in publication PMC4683619.

Target: TNFR1 on L929 cells (mouse (endogenous in L929)) (UniProt P25118)
Sequence of UniProt P25118 (P25118 30-454): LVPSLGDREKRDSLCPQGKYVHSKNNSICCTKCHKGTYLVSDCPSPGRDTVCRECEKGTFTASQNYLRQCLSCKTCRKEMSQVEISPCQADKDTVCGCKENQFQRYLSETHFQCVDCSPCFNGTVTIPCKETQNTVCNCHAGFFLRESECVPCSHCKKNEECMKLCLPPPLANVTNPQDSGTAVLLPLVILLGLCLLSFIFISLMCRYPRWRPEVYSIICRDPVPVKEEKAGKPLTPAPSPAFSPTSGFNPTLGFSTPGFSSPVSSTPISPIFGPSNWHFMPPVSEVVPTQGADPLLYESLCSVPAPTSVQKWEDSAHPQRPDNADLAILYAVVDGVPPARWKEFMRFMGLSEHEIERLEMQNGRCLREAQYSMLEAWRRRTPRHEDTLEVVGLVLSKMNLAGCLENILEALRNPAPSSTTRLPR

Row | Substance | cytotoxicity against L929 cells (WST-1, with actinomycin D, 24 h), EC50 [ng/mL]
1 | PRINT PEG5K scTNF-α (N-terminal mono-PEGylated single-chain TNF-α) (ligand) | 0.00058
2 | PRINT PEG20K scTNF-α (N-terminal mono-PEGylated single-chain TNF-α) (ligand) | 0.00062
3 | citraconylated scTNF-α (ligand) | 0.0076
4 | randomly PEGylated scTNF-α (directly PEGylated PEG5K scTNF-α) (ligand) | 0.0046
5 | recombinant single-chain TNF-α, His tag cleaved, unmodified (ligand) | 0.00035
